System: peptide library, one residue held at a place counted from the S/T acceptor
Assay: relative phosphorylation of the sub-library (ratio to the mean residue at this position); human; higher = residue favoured
In short: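 Each biotinylated degenerate peptide sub-library fixed one residue at one position around a central Ser/Thr and was incubated with a purified recombinant kinase, a human or orthologue construct, in 384-well plates. The 90 min reactions, under kinase-specific conditions, contained 50 μM peptide and 50 μM ATP spiked with γ-32P-ATP. Phosphorylation was read by phosphorimaging spots on streptavidin membranes and quantifying them by densitometry. Relative sub-library phosphorylation expresses each value as a ratio to the mean residue at that position.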

GRK7, construct: Full length, sequence (Q8WTQ7 whole entry, looked up): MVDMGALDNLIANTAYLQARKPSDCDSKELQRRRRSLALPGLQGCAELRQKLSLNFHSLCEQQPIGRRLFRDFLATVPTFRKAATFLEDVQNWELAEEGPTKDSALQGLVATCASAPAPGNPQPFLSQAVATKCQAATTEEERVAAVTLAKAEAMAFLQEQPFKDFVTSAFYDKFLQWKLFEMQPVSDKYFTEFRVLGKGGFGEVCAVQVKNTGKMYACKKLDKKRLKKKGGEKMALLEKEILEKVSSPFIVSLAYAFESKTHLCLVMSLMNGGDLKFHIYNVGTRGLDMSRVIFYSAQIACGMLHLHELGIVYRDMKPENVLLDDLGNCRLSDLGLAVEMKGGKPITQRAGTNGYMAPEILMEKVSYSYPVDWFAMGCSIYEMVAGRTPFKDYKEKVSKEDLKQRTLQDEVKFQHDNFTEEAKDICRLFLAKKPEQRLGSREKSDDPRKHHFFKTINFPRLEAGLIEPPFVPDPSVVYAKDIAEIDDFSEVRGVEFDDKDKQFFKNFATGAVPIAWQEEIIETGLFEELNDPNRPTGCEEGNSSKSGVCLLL
IKBKE, construct: Full length, sequence (Q14164 whole entry, looked up): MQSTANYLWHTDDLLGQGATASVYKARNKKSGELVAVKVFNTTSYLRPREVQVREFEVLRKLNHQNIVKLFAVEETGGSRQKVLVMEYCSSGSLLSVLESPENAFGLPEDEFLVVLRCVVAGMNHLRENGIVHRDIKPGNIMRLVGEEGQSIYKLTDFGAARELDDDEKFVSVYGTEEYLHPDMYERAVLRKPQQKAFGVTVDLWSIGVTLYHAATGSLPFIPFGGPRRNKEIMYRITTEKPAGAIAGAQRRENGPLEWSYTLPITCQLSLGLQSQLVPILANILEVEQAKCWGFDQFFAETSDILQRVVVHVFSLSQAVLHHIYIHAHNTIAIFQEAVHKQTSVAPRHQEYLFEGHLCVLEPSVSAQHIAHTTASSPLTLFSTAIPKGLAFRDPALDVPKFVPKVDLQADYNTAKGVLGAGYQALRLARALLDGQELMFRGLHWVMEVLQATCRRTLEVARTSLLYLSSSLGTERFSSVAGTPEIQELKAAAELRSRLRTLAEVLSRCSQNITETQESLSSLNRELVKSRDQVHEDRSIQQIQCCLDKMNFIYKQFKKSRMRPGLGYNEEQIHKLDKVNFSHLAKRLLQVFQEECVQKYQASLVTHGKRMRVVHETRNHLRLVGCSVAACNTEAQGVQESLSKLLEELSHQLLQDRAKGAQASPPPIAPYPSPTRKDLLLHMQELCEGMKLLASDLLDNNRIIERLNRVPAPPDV

GRK7, construct: Full length (from UniProt Q8WTQ7)
relative phosphorylation
Conditions	at +1	at +2	at +3	at +4	at -1	at -2	at -3	at -4	at -5
A fixed	0.839	1.23	0.77	1.09	0.809	0.805	0.636	0.878	0.87
D fixed	0.701	0.93	1.85	1.55	1.57	3.03	2.12	2.48	2.26
E fixed	2.1	0.894	4.35	1.69	1.31	2.43	1.75	1.9	2.03
F fixed	1.46	0.843	0.513	0.682	0.512	0.624	0.474	0.516	0.621
G fixed	0.823	1.15	0.924	1.1	1.7	1.13	1.24	1.04	1.34
H fixed	0.927	1.21	0.851	1.08	1.1	0.573	0.673	0.699	0.883
I fixed	0.765	1.11	0.372	0.799	0.495	0.533	0.499	0.553	0.729
K fixed	0.58	1.02	1.54	1.05	1.47	0.693	1.44	0.738	0.838
L fixed	0.907	0.921	0.581	0.818	0.621	0.548	0.534	0.54	0.589
M fixed	0.899	0.689	0.401	0.658	0.53	0.572	0.493	0.58	0.678
N fixed	0.704	1.15	0.604	0.726	1.66	0.956	1.16	0.872	0.96
P fixed	0.826	1.2	0.999	1.43	1.26	1.71	1.89	2.61	1.16
Q fixed	1.08	0.88	0.896	0.926	1.22	0.687	0.794	0.728	0.73
R fixed	0.56	1.02	0.848	0.792	0.891	0.762	1.58	0.798	0.955
V fixed	0.654	1.07	0.415	0.894	0.629	0.589	0.544	0.754	0.751
W fixed	1.93	0.822	0.572	0.758	0.513	0.614	0.554	0.702	0.858
Y fixed	1.25	0.868	0.515	0.975	0.717	0.737	0.623	0.61	0.753
pThr fixed	2.52	1.05	1.66	3.54	1.01	3.79	2.48	2.06	1.5
pTyr fixed	7.56	1.29	1.41	1.9	2.83	3.58	2.14	1.9	1.67

IKBKE, construct: Full length (from UniProt Q14164)
relative phosphorylation
Conditions	at +1	at +2	at +3	at +4	at -1	at -2	at -3	at -4	at -5
A fixed	0.346	1.18	0.935	0.899	0.911	0.889	1.11	1.12	1.26
D fixed	0.306	1.07	0.898	0.987	1.04	1.25	1.24	1.35	1.34
E fixed	0.22	0.933	0.928	1.01	0.97	0.821	1.2	1.23	1.27
F fixed	1.6	0.967	1.22	1.12	1.03	1.65	0.755	0.829	0.992
G fixed	0.423	0.811	0.961	0.879	0.677	0.857	1.42	1.44	1.21
H fixed	0.688	1.14	1.24	1.15	1.11	0.99	1.09	1.08	1.14
I fixed	2.51	1.06	0.853	0.964	0.899	0.528	0.632	0.796	0.742
K fixed	0.219	0.714	0.471	0.672	0.849	0.563	0.819	0.88	0.927
L fixed	3.41	1.08	0.887	0.994	1.18	1.11	0.743	0.94	0.753
M fixed	3.08	1.18	1.11	1.03	1.28	1.65	1.07	0.928	0.808
N fixed	0.323	1.04	0.9	0.854	0.916	0.916	1.12	1.01	1.06
P fixed	0.178	0.893	1.14	1.1	1.12	1.13	1.3	1.06	0.959
Q fixed	0.292	1.07	0.835	0.839	0.89	0.796	1.05	0.942	0.827
R fixed	0.248	0.931	0.626	0.721	0.955	0.62	0.968	0.845	0.965
V fixed	1.04	1.22	0.936	0.926	0.986	0.544	0.672	0.665	0.861
W fixed	1	0.876	1.33	1.65	0.94	0.934	0.826	0.955	0.922
Y fixed	1.12	0.831	1.74	1.21	1.24	1.76	0.995	0.918	0.974
pThr fixed	0.471	1.03	0.717	1.04	0.722	0.757	1.13	1.18	1
pTyr fixed	0.448	0.8	1.07	0.934	1.18	1.29	1.67	1.13	1.03
